Measured values from PMC4067995.

Target: V1 (A3B3DF), the soluble subcomplex of TtATPase without peripheral stalks (Thermus thermophilus strain HB8) (UniProt Q56403)
Test: native MS

V1 (A3B3DF), the soluble subcomplex of TtATPase without peripheral stalks (Thermus thermophilus strain HB8), sequence (Q56403 whole entry, chain 1 of 4): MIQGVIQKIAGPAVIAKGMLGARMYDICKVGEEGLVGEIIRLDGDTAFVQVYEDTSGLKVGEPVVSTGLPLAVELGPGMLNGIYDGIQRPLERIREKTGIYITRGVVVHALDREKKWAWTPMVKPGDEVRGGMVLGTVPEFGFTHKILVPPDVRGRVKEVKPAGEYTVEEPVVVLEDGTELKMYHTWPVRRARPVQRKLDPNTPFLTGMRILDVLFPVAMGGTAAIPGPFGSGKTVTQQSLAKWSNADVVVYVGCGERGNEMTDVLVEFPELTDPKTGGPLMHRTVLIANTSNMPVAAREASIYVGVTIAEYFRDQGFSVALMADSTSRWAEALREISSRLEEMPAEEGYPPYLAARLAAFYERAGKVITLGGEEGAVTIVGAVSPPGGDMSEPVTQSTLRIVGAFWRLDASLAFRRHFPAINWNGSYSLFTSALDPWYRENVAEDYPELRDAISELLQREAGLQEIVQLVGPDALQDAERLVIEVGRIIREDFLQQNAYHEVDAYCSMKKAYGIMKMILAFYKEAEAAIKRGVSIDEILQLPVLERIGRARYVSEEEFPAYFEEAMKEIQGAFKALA
V1 (A3B3DF), the soluble subcomplex of TtATPase without peripheral stalks (Thermus thermophilus strain HB8), sequence (Q56404 whole entry, chain 2 of 4, further chain): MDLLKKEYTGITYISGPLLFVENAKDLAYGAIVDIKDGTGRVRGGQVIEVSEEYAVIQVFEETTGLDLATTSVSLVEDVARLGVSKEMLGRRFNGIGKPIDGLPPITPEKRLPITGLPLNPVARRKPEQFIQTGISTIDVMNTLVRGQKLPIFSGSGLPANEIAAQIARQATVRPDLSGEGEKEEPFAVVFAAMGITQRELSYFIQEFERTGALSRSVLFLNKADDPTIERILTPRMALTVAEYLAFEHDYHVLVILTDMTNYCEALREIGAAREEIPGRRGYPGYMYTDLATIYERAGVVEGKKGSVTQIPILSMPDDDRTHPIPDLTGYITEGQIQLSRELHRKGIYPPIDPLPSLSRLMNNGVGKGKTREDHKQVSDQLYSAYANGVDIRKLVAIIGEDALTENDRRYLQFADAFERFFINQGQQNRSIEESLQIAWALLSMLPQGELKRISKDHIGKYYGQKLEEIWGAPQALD
V1 (A3B3DF), the soluble subcomplex of TtATPase without peripheral stalks (Thermus thermophilus strain HB8), sequence (O87880 whole entry, chain 3 of 4, further chain): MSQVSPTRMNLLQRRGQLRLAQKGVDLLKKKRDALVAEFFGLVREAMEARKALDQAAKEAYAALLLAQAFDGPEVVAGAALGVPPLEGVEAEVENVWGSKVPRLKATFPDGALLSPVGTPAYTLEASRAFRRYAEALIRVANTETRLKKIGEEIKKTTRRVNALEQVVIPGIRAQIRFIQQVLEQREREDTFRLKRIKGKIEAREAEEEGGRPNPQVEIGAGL
V1 (A3B3DF), the soluble subcomplex of TtATPase without peripheral stalks (Thermus thermophilus strain HB8), sequence (P74903 whole entry, chain 4 of 4, further chain): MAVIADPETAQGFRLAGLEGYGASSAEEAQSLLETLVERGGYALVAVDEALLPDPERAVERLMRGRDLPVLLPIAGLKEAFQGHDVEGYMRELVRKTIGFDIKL

“peripheral EG stalk of TtATPase (from UniProt P74901 1-188) (complex)” gave a stoichiometry N of 2.
